Values of other authors in US7858117B2, “Amphoteric liposomes and their use” (Novosom AG, priority 2002, dated 2010).

| Substance | pI (protein) | pK value of the carboxyl group (state of the art) |
| --- | --- | --- |
| lysozyme | 11.5 |  |
| cholesterol hemisuccinate |  | approximately 4.5 |
